Test results taken from publication PMC4339808.

Target: 70S ribosome (vacant) (E. coli MRE600)

| KM of the 70S ribosome-stimulated multiple turnover GTPase activity (0.01 uM protein, 100 uM GTP, 0 to 8 uM 70S) [µM] | Substance |
| --- | --- |
| 7 | EF4 ΔG555 (from UniProt P60785 1-555) (domain or fragment) |
| 0.32 | Elongation Factor 4 (EF4/LepA), wild type (from UniProt P60785 1-599) (enzyme) |
| 10 | EF4 ΔP520 (from UniProt P60785 1-520) (domain or fragment) |
| 36 | EF4 ΔA494 (from UniProt P60785 1-494) (domain or fragment) |
